The numbers were not newly measured in paper PMC10999626, which cites them from elsewhere.

The target in this data set is FcRn (Mus musculus) (UniProt Q61559). As to the kind of experiment: BLI.
Chain of FcRn (Mus musculus) (Q61559 22-365): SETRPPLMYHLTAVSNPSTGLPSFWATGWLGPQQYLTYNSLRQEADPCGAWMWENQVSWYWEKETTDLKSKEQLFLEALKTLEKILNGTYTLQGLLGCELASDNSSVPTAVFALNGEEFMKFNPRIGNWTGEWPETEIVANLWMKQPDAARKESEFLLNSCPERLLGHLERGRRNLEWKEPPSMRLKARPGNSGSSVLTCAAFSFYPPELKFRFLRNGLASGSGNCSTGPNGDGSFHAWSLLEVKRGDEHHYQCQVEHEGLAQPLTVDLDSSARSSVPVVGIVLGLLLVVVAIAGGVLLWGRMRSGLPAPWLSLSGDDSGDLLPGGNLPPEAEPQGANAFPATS

Chain of human IgG4 (P01861 whole entry): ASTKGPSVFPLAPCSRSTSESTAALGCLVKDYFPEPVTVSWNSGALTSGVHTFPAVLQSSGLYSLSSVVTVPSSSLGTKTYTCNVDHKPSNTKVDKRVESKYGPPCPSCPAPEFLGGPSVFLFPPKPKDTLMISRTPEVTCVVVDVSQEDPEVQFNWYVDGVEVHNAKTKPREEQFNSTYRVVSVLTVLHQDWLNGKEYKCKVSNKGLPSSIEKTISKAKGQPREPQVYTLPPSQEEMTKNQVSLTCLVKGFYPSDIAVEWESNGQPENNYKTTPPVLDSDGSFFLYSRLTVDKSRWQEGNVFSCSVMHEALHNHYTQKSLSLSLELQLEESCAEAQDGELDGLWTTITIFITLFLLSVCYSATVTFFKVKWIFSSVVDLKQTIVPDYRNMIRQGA

As a reminder, the Kd is the equilibrium constant for the complex coming apart. With human IgG4 (from UniProt P01861), the Kd is 6 nM.
